The source of these data is PMC2759312.

The data set deals with gamma complex labeled with AF488 on delta' (gammac-AF488);beta sliding clamp (Escherichia coli;Escherichia coli, UniProt P06710-2;P28630;P28631;P28905;P28632;P0A988 1-431;1-343;1-334;1-147;1-137;1-366, |). In words: fluorescence anisotropy.

B1: p/t-DNA-RhX (30-nt primer on 60-nt template) (dsDNA)
DNA 1: TTCAGGTCAGAAGGGTTCTATCTCTGTTGGCCAGAATGTCCCTTTTATTACTGGTCGTGT
DNA 2: ACACGACCAGTAATAAAAGGGACATTCTGG
modifications: C6-amino linker at 5' end of 60mer
In the case of B1, the binding result is given as “binds”.
